According to patent US12280121B2, “Immunoconjugates and methods” (Immunome, Inc., priority 2021, dated 2025):
Read-outs that look alike come from different tables or passages of the source.

System: Jeko-1
Experiment: CTG assay of ROR-1 ADCs and toxins, JeKo-1
Format: cell-based
Procedure: FIG. 33 illustrates a CTG assay wherein ROR+ (JeKo-1) cells were incubated with the ADCs generated as described in FIG. 32 in serial three-fold dilutions and cell viability was assessed after 72 hours.
The CTG assay is a method of determining the number of viable cells in culture based on quantitation of the ATP present, an indicator of metabolically active cells. The cell assay requires the addition of a single reagent, Cell Titer Glo, in which cells are lysed and generation of a luminescent signal is produced. The luminescent signal is proportional to the amount of ATP present. The amount of ATP is directly proportional to the number of cells present in culture. For our assay, cells were ensured to be in log-phase for either Jeko-1 or MDA-MB-468. Cells were transferred to 96 wells and treated with compounds in three-fold serial dilution starting from 1 μM to 0.0000508 μM (10 points dilution), for 72 h. Cell viability was analyzed with CellTiter-Glo® Luminescent Cell Viability Assay (Promega) following manufactures' instruction. Percentage of viable cells in each compound concentration was determined by normalizing with the luminescence of vehicle control and plotted into percentage of viability versus dose response curve by nonlinear fit in GraphPad Prism software.
Novel ROR-1 antibody-drug conjugates (ADCs) were evaluated by CTG Assay in a similar manner as was described in Example 24 for screening of payloads. […] Briefly ROR+(JeKo-1/MDA-MB-468) or ROR− (Ramos) cells were transferred to 96 wells and treated with the ADCs in three-fold serial dilution starting from […] (10 points dilution), for 72 h. Cell viability was analyzed with CellTiter-Glo® Luminescent Cell Viability Assay (Promega) following the manufactures' instructions (FIG. 33). The percentage of viable cells at each ADC concentration was determined by normalizing with the luminescence of vehicle control and plotted into percentage of viability versus dose response curve by nonlinear fit in GraphPad Prism software.

B1: VLS-101 (conjugate, chains of the INN, looked up)
VH: QVQLQESGPGLVKPSQTLSLTCTVSGYAFTAYNIHWVRQAPGQGLEWMGSFDPYDGGSSYNQKFKDRLTISKDTSKNQVVLTMTNMDPVDTATYYCARGWYYFDYWGHGTLVTVSS
VL: DIVMTQTPLSLPVTPGEPASISCRASKSISKYLAWYQQKPGQAPRLLIYSGSTLQSGIPPRFSGSGYGTDFTLTINNIESEDAAYYFCQQHDESPYTFGEGTKVEIK
modifications: vedotin (MMAE) payload
Molecule B1 has an IC50 (Jeko-1, average of run 1 and run 2, read-out: Avg. IC50) of 60.1 nM, an IC50 (Jeko-1 P3, run 1, 72 h, read-out: Jeko-1 P3 (RUN1) IC50) of 63.4 nM and an IC50 (Jeko-1 P4, run 2, 72 h, read-out: Jeko-1 P4 (RUN2) IC50) of 56.8 nM.
